Results: patent US7217693B2, “Human G protein-coupled receptor expressed in the dorsal root ganglia” (National Research Council of Canada, priority 1997, dated 2007)

What follows are substances tested against T1, human clone 24 (Homo sapiens, UniProt Q96LB2, E310Q/I312T/I5V) (assay: Calcium signaling (FURA-2) in stably transfected HEK293 cells 293/pcDNA3-HML-HA24). Conditions: stably transfected HEK293 cell line 293/pcDNA3-HML-HA24, FURA-2 AM, peptides added successively.
T1 construct: expressed in transfected cells
T1 sequence (Q96LB2 whole entry I5V/E310Q/I312T): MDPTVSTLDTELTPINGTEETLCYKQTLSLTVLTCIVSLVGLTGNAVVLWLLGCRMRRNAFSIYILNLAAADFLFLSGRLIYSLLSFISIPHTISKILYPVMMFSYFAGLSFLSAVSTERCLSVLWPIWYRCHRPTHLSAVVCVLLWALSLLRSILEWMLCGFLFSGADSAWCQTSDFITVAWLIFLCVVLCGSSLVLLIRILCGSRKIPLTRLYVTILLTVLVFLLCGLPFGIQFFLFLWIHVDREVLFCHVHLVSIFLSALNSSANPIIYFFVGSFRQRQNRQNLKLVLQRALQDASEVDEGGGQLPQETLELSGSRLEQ
Assay type: cell-based
Description: The coding sequence of human clone 24 was transferred into a pcDNA3 vector and modified to add a haemaglutinin tag at the C-terminus of the receptor sequence. This clone, designated as pcDNA3-HML-HA24 was transfected into HEK293 cells using a modified CaCl2 method (Maniatis, Molecular Cloning: A Laboratory Manual, Cold Spring Harbor Laboratory Press (1989)). The cells were maintained in culture medium at 37° C., 5% CO2 and diluted 10 fold every 3 days.
The cells were inoculated in 90 mm tissue culture dishes (5×10^5 cells per flask) in Dulbecco's Modified Essential Medium (DMEM, Gibco BRL), supplemented with 10% fetal bovine serum (FBS), 100 U/ml penicillin, 100 μg/ml streptomycin and 0.25 μg/ml fungizone. One day after inoculation, cells were transiently transfected with 30 μg of plasmid DNA per dish. The cells were harvested 48 hours post transfection for analysis. The expression of the gene was first checked by immunoprecipitation and western blotting with an anti-haemaglutinin antibody. A protein of approximately 43 KD was detected in stably as well as transiently transfected HEK293 cells, but not in control cells.
Stably transfected HEK293 cells were obtained after approximately 21 days of selection in culture medium containing 800 μg/ml G418. Calcium signaling measurement was performed with one of these stably transfected cell line, 293/pcDNA3-HML-HA24. The cells were grown on a 24 mm round glass cover slides to 50–70% confluence. […] The calcium displacement was measured using a PTI (Photon Technology International) D104 photometer equipped with a PTI Delta RAM High speed multiwavelength illuminator, a PTI SC500 Shutter controller, a PTI LPS220 ARC lamp supply and the PTI FELIX software, v.1.2. […] The cells were exposed to 340 and 380 nm light and the 510 nm light emitted by the cells was recorded. […]
With angiotensin III the “calcium displacement response upon stimulation” value was “a significant response”.
In the case of “Angiotensin I (DRVYIHPFHL) [peptide added to DRR-transfected cells in calcium signaling assay]”, the “calcium displacement response upon stimulation” value was “no response”.
For “angiotensin II (DRVYIHPF) [peptide added to DRR-transfected cells in calcium signaling assay]”, the “calcium displacement response upon stimulation” value was “a significant response”.
